Measurements published in PMC5618632, “In Vitro Glucuronidation of Wushanicaritin by Liver Microsomes, Intestine Microsomes and Expressed Human UDP-Glucuronosyltransferase Enzymes” (International Journal of Molecular Sciences, 2017).

What was measured:
[1] = design: method as in PMID 21968061; settings: DPPH radical scavenging (antioxidant activity); cited from earlier work
expressed human UGT1A1 = target: T1, expressed human UGT1A1 (Homo sapiens, UniProt P22309); assay: Glucuronidation by expressed UGT1A1
T1 sequence (P22309 26-533): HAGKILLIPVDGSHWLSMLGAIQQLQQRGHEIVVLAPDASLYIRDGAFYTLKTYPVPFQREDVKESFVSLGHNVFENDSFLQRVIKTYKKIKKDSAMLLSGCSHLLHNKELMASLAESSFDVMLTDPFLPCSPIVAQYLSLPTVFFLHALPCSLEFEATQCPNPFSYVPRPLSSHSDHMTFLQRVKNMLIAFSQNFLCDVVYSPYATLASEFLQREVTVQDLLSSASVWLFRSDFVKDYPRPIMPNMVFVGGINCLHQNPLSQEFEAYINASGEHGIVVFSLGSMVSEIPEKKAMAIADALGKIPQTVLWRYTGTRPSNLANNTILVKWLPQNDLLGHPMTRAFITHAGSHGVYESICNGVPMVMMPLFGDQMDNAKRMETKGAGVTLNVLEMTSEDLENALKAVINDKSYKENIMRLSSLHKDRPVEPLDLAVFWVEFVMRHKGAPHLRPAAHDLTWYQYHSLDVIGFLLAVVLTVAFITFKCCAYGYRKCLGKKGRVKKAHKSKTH
Description: (§1) The reaction was terminated by adding ice-cold acetonitrile. […] All experiments were performed in triplicate.
The gradient elution program was the same as the UPLC condition of the structural identification of wushanicaritin glucuronides above. The detection wavelength was set at 270 nm, and the injection volume was 8 µL.
(§2) The parameter were as follow. V is the formation rate of the product. Vmax is the maximal velocity. […] Ksi is the substrate inhibition constant. […] (1) V=Vmax ×[S]/Km+[S] (2) V=Vmax ×[S]/Km + [S](1+[S]/Ksi)
The contribution of individual expressed UGT enzymes to wushanicaritin glucuronidation in HLM was evaluated by the relative activity factor (RAF) approach as described in previous studies. The relative activity factor was defined as the activity ratio of HLM to an expressed UGT enzyme (Supersome) toward a probe substrate for this enzyme using Equation (3). The relative amount of wushanicaritin glucuronidation in HLM attributed to an expressed UGT enzyme was estimated by multiplying the glucuronidation activity (i.e., the intrinsic clearance) derived with this enzyme by the corresponding RAF. […] The contributions of individual UGT enzyme were calculated according to Equation (4). (3) RAF=CLint{probe,pHLM}/CLint{probe,Supersome} (4) Contribution of UGTs=CLint(wushanica ritin,UGTs)/CLint(wushanica ritin,pHLM)×RAF

[2] = Glucuronidation by pooled human liver microsomes (HLM), UDPGA-supplemented; format: in vitro ADME; settings: probe substrate glucuronidation
Description: as §1, §2

[3] = substrate: COc1ccc(-c2oc3c(CCC(C)(C)O)c(O)cc(O)c3c(=O)c2O)cc1; assay: Glucuronidation by expressed UGT1A3; format: in vitro ADME, human; settings: pH 7.4
Description: Wushanicaritin was incubated with HLM, HIM and expressed UGTs enzymes to determine the rates of glucuronidation as published previously [12, 23, 31]. Briefly, the incubation mixture mainly contained 50 mM Tris-hydrochloric acid buffer (pH 7.4), 0.88 mM MgCl2, 22 µg/mL alamethicin, 4.4 mM saccharolactone and 3.5 mM UDPGA [32]. The reaction was terminated by adding ice-cold acetonitrile. The samples were vortexed and centrifuged at 13,800× g for 10 min. The supernatant was subjected to UPLC/Q-TOF-MS (Waters Corporation, Manchester, UK) analysis. […] Similarly, wushanicaritin was incubated with DLM, RLM, MkLM, RaLM and GpLM in the same way as for HLM. All experiments were performed in triplicate. Preliminary experiments were performed to ensure that the rates of glucuronidation were determined under linear conditions with respect to the incubation time and protein concentration.
Serial concentrations of wushanicaritin (0.156–20 µM) were incubated with HLM, HIM and expressed UGTs enzymes to determine wushanicaritin glucuronidation rates. […] Appropriate models were selected by visual inspection of the Eadie–Hofstee plot [34]. Model fitting and parameter estimation were performed by GraphPad Prism V5 software (GraphPad Software, Inc., San Diego, CA, USA).
The parameter were as follow. V is the formation rate of the product. Vmax is the maximal velocity. Km is the Michaelis constant, and [S] is the substrate. Ksi is the substrate inhibition constant. The intrinsic clearance (CLint) was derived by Vmax/Km for the Michaelis–Menten and substrate inhibition models [12]. (1) V=Vmax ×[S]/Km+[S] (2) V=Vmax ×[S]/Km + [S](1+[S]/Ksi)
(§3) The contribution of individual expressed UGT enzymes to wushanicaritin glucuronidation in HLM was evaluated by the relative activity factor (RAF) approach as described in previous studies [2, 12]. The relative activity factor was defined as the activity ratio of HLM to an expressed UGT enzyme (Supersome) toward a probe substrate for this enzyme using Equation (3). The relative amount of wushanicaritin glucuronidation in HLM attributed to an expressed UGT enzyme was estimated by multiplying the glucuronidation activity (i.e., the intrinsic clearance) derived with this enzyme by the corresponding RAF. […] The contributions of individual UGT enzyme were calculated according to Equation (4). (3) RAF=CLint{probe,pHLM}/CLint{probe,Supersome} (4) Contribution of UGTs=CLint(wushanica ritin,UGTs)/CLint(wushanica ritin,pHLM)×RAF

not read [4] = substrate: C[C@H](CCC(=O)O)[C@H]1CC[C@H]2[C@@H]3[C@H](O)C[C@@H]4C[C@H](O)CC[C@]4(C)[C@H]3CC[C@]12C; assay: not read; settings: other: probe substrate glucuronidation; UGT1A3; pH 7.4
[5] = substrate: COc1ccc(-c2oc3c(CCC(C)(C)O)c(O)cc(O)c3c(=O)c2O)cc1; assay: Glucuronidation by expressed UGT1A7; format: in vitro ADME, human; settings: pH 7.4
Description: as §1, §2

[6] = substrate: COc1ccc(-c2oc3c(CCC(C)(C)O)c(O)cc(O)c3c(=O)c2O)cc1; assay: Glucuronidation by expressed UGT1A8; format: in vitro ADME, human; settings: pH 7.4
Description: as §1, §2

not read [7] = substrate: COc1ccc(-c2oc3c(CCC(C)(C)O)c(O)cc(O)c3c(=O)c2O)cc1; assay: not read; settings: pH 7.4
Description: Briefly, the incubation mixture mainly contained 50 mM Tris-hydrochloric acid buffer (pH 7.4), 0.88 mM MgCl2, 22 µg/mL alamethicin, 4.4 mM saccharolactone and 3.5 mM UDPGA [32]. The reaction was terminated by adding ice-cold acetonitrile. […] The supernatant was subjected to UPLC/Q-TOF-MS (Waters Corporation, Manchester, UK) analysis. […] All experiments were performed in triplicate. Preliminary experiments were performed to ensure that the rates of glucuronidation were determined under linear conditions with respect to the incubation time and protein concentration.
Appropriate models were selected by visual inspection of the Eadie–Hofstee plot [34]. Model fitting and parameter estimation were performed by GraphPad Prism V5 software (GraphPad Software, Inc., San Diego, CA, USA).
V is the formation rate of the product. Vmax is the maximal velocity. Km is the Michaelis constant, and [S] is the substrate. Ksi is the substrate inhibition constant. The intrinsic clearance (CLint) was derived by Vmax/Km for the Michaelis–Menten and substrate inhibition models [12]. (1) V=Vmax ×[S]/Km+[S] (2) V=Vmax ×[S]/Km + [S](1+[S]/Ksi)
as §3

[8] = other: formation of G1 (3-O-glucuronide)
[9] = other: formation of G2 (7-O-glucuronide)
[10] = other: formation of G1 (3-O-glucuronide), UGT2B7
[11] = other: formation of G2 (7-O-glucuronide), UGT2B7
[12] = other: formation of G1 (3-O-glucuronide), UGT1A1
[13] = other: formation of G2 (7-O-glucuronide), UGT1A1

Q: With `O=C1O[C@H]([C@@H](O)CO)C(O)=C1O` [vitamin C, reference compound] as the molecule, how does the IC50 [1] read?
A: 32 µM

Q: For `C[C@]12CC[C@@H]3c4ccc(O)cc4CC[C@H]3[C@@H]1CC[C@@H]2O` [β-estradiol, reference compound], which Km (expressed human UGT1A1) is on record?
A: 25.3 ± 4.28 µM

Q: What about the Vmax [2] of the same molecule?
A: 0.19 ± 0.09 nmol/min/mg

B1: expressed human UGT1A3 (Homo sapiens) (protein)
chain: GKVLVVPIDGSHWLSMREVLRELHARGHQAVVLTPEVNMHIKEENFFTLTTYAISWTQDEFDRHVLGHTQLYFETEHFLKKFFRSMAMLNNMSLVYHRSCVELLHNEALIRHLNATSFDVVLTDPVNLCAAVLAKYLSIPTVFFLRNIPCDLDFKGTQCPNPSSYIPRLLTTNSDHMTFMQRVKNMLYPLALSYICHAFSAPYASLASELFQREVSVVDILSHASVWLFRGDFVMDYPRPIMPNMVFIGGINCANRKPLSQEFEAYINASGEHGIVVFSLGSMVSEIPEKKAMAIADALGKIPQTVLWRYTGTRPSNLANNTILVKWLPQNDLLGHPMTRAFITHAGSHGVYESICNGVPMVMMPLFGDQMDNAKRMETKGAGVTLNVLEMTSEDLENALKAVINDKSYKENIMRLSSLHKDRPVEPLDLAVFWVEFVMRHKGAPHLRPAAHDLTWYQYHSLDVIGFLLAVVLTVAFITFKCCAYGYRKCLGKKGRVKKAHKSKTH
notes: purchased Corning Biosciences
Q: For B1, which K0.5 [3, 8] is on record?
A: 0.45 ± 0.04 µM

Q: And the Vmax [3, 8]?
A: 0.00017 µmol/min/mg

Q: What about the Vmax/Km [3, 8] of the same molecule?
A: 360 µL/min/mg

Q: And the K0.5 [3, 9]?
A: 0.61 ± 0.08 µM

Q: And the Vmax [3, 9]?
A: 0.00023 µmol/min/mg

Q: What about the Vmax/Km [3, 9] of the same molecule?
A: 380 µL/min/mg

Q: What about the Km (not read [4]) of the same molecule?
A: 10.90 ± 0.74 µM

Q: What about the Vmax (not read [4]) of the same molecule?
A: 0.0002 µmol/min/mg

Q: And the Vmax/Km (not read [4])?
A: 18.5 µL/min/mg

B2: expressed human UGT1A7 (Homo sapiens) (protein)
chain: GKLLVVPMDGSHWFTMQSVVEKLILRGHEVVVVMPEVSWQLGRSLNCTVKTYSTSYTLEDQDREFMVFADARWTAPLRSAFSLLTSSSNGIFDLFFSNCRSLFNDRKLVEYLKESCFDAVFLDPFDACGLIVAKYFSLPSVVFARGIFCHYLEEGAQCPAPLSYVPRLLLGFSDAMTFKERVWNHIMHLEEHLFCPYFFKNVLEIASEILQTPVTAYDLYSHTSIWLLRTDFVLEYPKPVMPNMIFIGGINCHQGKPVPMEFEAYINASGEHGIVVFSLGSMVSEIPEKKAMAIADALGKIPQTVLWRYTGTRPSNLANNTILVKWLPQNDLLGHPMTRAFITHAGSHGVYESICNGVPMVMMPLFGDQMDNAKRMETKGAGVTLNVLEMTSEDLENALKAVINDKSYKENIMRLSSLHKDRPVEPLDLAVFWVEFVMRHKGAPHLRPAAHDLTWYQYHSLDVIGFLLAVVLTVAFITFKCCAYGYRKCLGKKGRVKKAHKSKTH
notes: purchased Corning Biosciences
Q: For B2, which K0.5 [5, 8] is on record?
A: 0.47 ± 0.03 µM

Q: What about the Vmax [5, 8] of the same molecule?
A: 0.00017 µmol/min/mg

Q: What about the Vmax/Km [5, 8] of the same molecule?
A: 360 µL/min/mg

Q: What about the K0.5 [5, 9] of the same molecule?
A: 0.61 ± 0.08 µM

Q: What about the Vmax [5, 9] of the same molecule?
A: 0.00023 µmol/min/mg

Q: And the Vmax/Km [5, 9]?
A: 380 µL/min/mg

B3: expressed human UGT1A8 (Homo sapiens) (protein)
chain: GKLLVVPMDGSHWFTMQSVVEKLILRGHEVVVVMPEVSWQLGKSLNCTVKTYSTSYTLEDLDREFMDFADAQWKAQVRSLFSLFLSSSNGFFNLFFSHCRSLFNDRKLVEYLKESSFDAVFLDPFDACGLIVAKYFSLPSVVFARGIACHYLEEGAQCPAPLSYVPRILLGFSDAMTFKERVRNHIMHLEEHLFCQYFSKNALEIASEILQTPVTAYDLYSHTSIWLLRTDFVLDYPKPVMPNMIFIGGINCHQGKPLPMEFEAYINASGEHGIVVFSLGSMVSEIPEKKAMAIADALGKIPQTVLWRYTGTRPSNLANNTILVKWLPQNDLLGHPMTRAFITHAGSHGVYESICNGVPMVMMPLFGDQMDNAKRMETKGAGVTLNVLEMTSEDLENALKAVINDKSYKENIMRLSSLHKDRPVEPLDLAVFWVEFVMRHKGAPHLRPAAHDLTWYQYHSLDVIGFLLAVVLTVAFITFKCCAYGYRKCLGKKGRVKKAHKSKTH
notes: purchased Corning Biosciences
Q: Which K0.5 [6, 8] does the source give for B3 here?
A: 0.38 ± 0.03 µM

Q: What about the Vmax [6, 8] of the same molecule?
A: 2e-05 µmol/min/mg

Q: What about the Vmax/Km [6, 8] of the same molecule?
A: 50 µL/min/mg

Q: And the K0.5 [6, 9]?
A: 0.58 ± 0.07 µM

Q: And the Vmax [6, 9]?
A: 7e-05 µmol/min/mg

Q: And the Vmax/Km [6, 9]?
A: 120 µL/min/mg

B4: expressed human UGT2B7 (Homo sapiens) (protein)
chain: GKVLVWAAEYSHWMNIKTILDELIQRGHEVTVLASSASILFDPNNSSALKIEIYPTSLTKTELENFIMQQIKRWSDLPKDTFWLYFSQVQEIMSIFGDITRKFCKDVVSNKKFMKKVQESRFDVIFADAIFPCSELLAELFNIPFVYSLSFSPGYTFEKHSGGFIFPPSYVPVVMSELTDQMTFMERVKNMIYVLYFDFWFEIFDMKKWDQFYSEVLGRPTTLSETMGKADVWLIRNSWNFQFPYPLLPNVDFVGGLHCKPAKPLPKEMEDFVQSSGENGVVVFSLGSMVSNMTEERANVIASALAQIPQKVLWRFDGNKPDTLGLNTRLYKWIPQNDLLGHPKTRAFITHGGANGIYEAIYHGIPMVGIPLFADQPDNIAHMKARGAAVRVDFNTMSSTDLLNALKRVINDPSYKENVMKLSRIQHDQPVKPLDRAVFWIEFVMRHKGAKHLRVAAHDLTWFQYHSLDVIGFLLVCVATVIFIVTKCCLFCFWKFARKAKKGKND
Q: With B4 as the molecule, how does the K0.5 (not read [7]; [10]) read?
A: 2.34 ± 0.19 µM

Q: What about the Vmax (not read [7]; [10]) of the same molecule?
A: 3e-05 µmol/min/mg

Q: What about the Vmax/Km (not read [7]; [10]) of the same molecule?
A: 10 µL/min/mg

Q: And the K0.5 (not read [7]; [11])?
A: 5.28 ± 0.98 µM

Q: And the Vmax (not read [7]; [11])?
A: 1e-05 µmol/min/mg

Q: And the Vmax/Km (not read [7]; [11])?
A: 2 µL/min/mg

B5: expressed human UGT1A1 (Homo sapiens) (protein)
chain: HAGKILLIPVDGSHWLSMLGAIQQLQQRGHEIVVLAPDASLYIRDGAFYTLKTYPVPFQREDVKESFVSLGHNVFENDSFLQRVIKTYKKIKKDSAMLLSGCSHLLHNKELMASLAESSFDVMLTDPFLPCSPIVAQYLSLPTVFFLHALPCSLEFEATQCPNPFSYVPRPLSSHSDHMTFLQRVKNMLIAFSQNFLCDVVYSPYATLASEFLQREVTVQDLLSSASVWLFRSDFVKDYPRPIMPNMVFVGGINCLHQNPLSQEFEAYINASGEHGIVVFSLGSMVSEIPEKKAMAIADALGKIPQTVLWRYTGTRPSNLANNTILVKWLPQNDLLGHPMTRAFITHAGSHGVYESICNGVPMVMMPLFGDQMDNAKRMETKGAGVTLNVLEMTSEDLENALKAVINDKSYKENIMRLSSLHKDRPVEPLDLAVFWVEFVMRHKGAPHLRPAAHDLTWYQYHSLDVIGFLLAVVLTVAFITFKCCAYGYRKCLGKKGRVKKAHKSKTH
Q: With B5 as the molecule, how does the K0.5 (not read [7]; [12]) read?
A: 0.98 ± 0.20 µM

Q: What about the Vmax (not read [7]; [12]) of the same molecule?
A: 0.00113 µmol/min/mg

Q: What about the Vmax/Km (not read [7]; [12]) of the same molecule?
A: 1160 µL/min/mg

Q: What about the K0.5 (not read [7]; [13]) of the same molecule?
A: 0.68 ± 0.08 µM

Q: And the Vmax (not read [7]; [13])?
A: 0.00011 µmol/min/mg

Q: And the Vmax/Km (not read [7]; [13])?
A: 160 µL/min/mg
